Source: patent US12324827B2, “Combination therapy for the treatment of migraines” (The University of Chicago, priority 2019, dated 2025)
Entries after “also recorded” stand apart in the source; their conditions may differ.

Legend:
mechanical hyperalgesia = assay: Acid saline-induced fibromyalgia model, hind paw withdrawal threshold by electronic von Frey; assay type: in vivo, female Wistar rats; settings: nasal IGF-1 150 μg/dose on PD-2, PD-5, PD-8; experiments FM-7 and FM-8, n=3/group
From the text: However, due to its simplicity and reproducibility, a widely-used, non-inflammatory rodent model which mimics chronic, widespread muscle pain-like behavior was utilized. This fibromyalgia model consists of two unilateral injections of acid saline into the gastrocnemius muscle which produce bilateral, long-lasting mechanical hyperalgesia for up to 4 weeks without motor deficits or tissue damage observed histologically (Sluka et al., 2001), Hind paw withdrawal thresholds obtained using an electronic von Frey device were used as a measure of “inferred pain”.
Experimental Procedures here are described utilizing intranasal IGF-1 for treatment of pain related to the acid saline-induced fibromyalgia model. […]
Testing consists of placing rats in an acrylic cage module [23 cm×24 cm×14.6 cm (W×L×H)] which rests upon an elevated wire mesh grid floor (FIG. 21). […] The force at which this response occurs is recorded automatically by the electronic device and is designated as the paw withdrawal threshold (FIG. 22). […]
Two investigators were used for all experiments. […] The second investigator recorded paw withdrawal threshold (PWT) force levels, procedures modeled after the experimental strategy reported by Martinov et al., 2013. […]
Specifically, baseline (BA) measurements of paw withdrawal threshold (PWT) were determined for six animals/experiment prior to experimental treatment. […]

[1] = within 30 minutes of N2B administration; cited from earlier work
[2] = Blood glucose after nose-to-brain (N2B) delivery of IGF-1; assay type: in vivo, Wistar rats; settings: for blood glucose level: n=4/group; for hypoglycemia: after nasal (N2B) delivery of IGF-1
Experimental: N2B delivery of 150 μg human recombinant IGF-1 (#191-G1; R&D Systems, Minneapolis, MN) in 50 μL sodium succinate buffer followed the previously described approach (21,51) that was based on the techniques of Liu and coworkers (24) in the recording laboratory under isoflurane anesthesia with spontaneous ventilation.
Blood glucose was monitored in a subset of animals. Immediately before N2B treatments and while anesthetized, blood glucose was sampled at time zero using a sterile, 27 gauge hypodermic needle to puncture the tip of the tail. A second drop of blood from punctures was used for glucose measurements (Contour Next EZ; Ascensia Diabetes Care, US, Inc.; Parsippany, NJ). After N2B treatments (IGF-1 or vehicle), animals were briefly re-anesthetized and maintained as above for each blood draw done over time (i.e., 0.3, 3, 6, and 24 hours).

[3] = system: rat hippocampal brain slice cultures; settings: cited from earlier work

IGF-1: human recombinant IGF-1 (#191-G1; R&D Systems), 150 μg in 50 μL sodium succinate buffer, delivered nose-to-brain
hind paw withdrawal threshold / pain-related behavior (mechanical hyperalgesia): significant and continued reduction in pain-related behavior; also recorded: protection against acid-induced hind paw hyperalgesia | levels in the trigeminal ganglion relative to levels in the olfactory bulb [1]: ~10 fold | blood glucose level ([2]; 0.3-hour after N2B IGF-1 150 μg, non-fasted rats): 196 ± 22 mg/dL | blood glucose level ([2]; 3.0-hour after N2B IGF-1 150 μg): 114 ± 14 mg/dL | blood glucose level ([2]; 6.0-hour after N2B IGF-1 150 μg): 134 ± 7 mg/dL | blood glucose level ([2]; 24-hour after N2B IGF-1 150 μg): 150 ± 40 mg/dL | hypoglycemia [2]: did not induce hypoglycemia; also recorded: did not see evidence of hypoglycemia; also recorded: did not evoke hypoglycemia; also recorded: no evidence of hypoglycemia; also recorded: did not cause hypoglycemia; also recorded: no hypoglycemic effect; also recorded: did not trigger hypoglycemia | hypoglycemia ([2]; listed as insulin-like growth factor-1): no impact on blood glucose levels occurred | lowest IGF-1 glucose-related level seen ([2]; normal range for Wistar rats 85-132 mg/dL, control 132 mg/dL at time 0): 114 mg/dL | oxidative stress from menadione exposure ([3]; brain slice cultures in vitro): significantly reduced | spreading depression in slice cultures ([3]; rat hippocampal brain slice cultures): significantly inhibited spreading depression
